Source: the supplement of paper PMC9170038

Test system: MS2 coat protein
Test: apparent KD of MS2 coat protein; designed switch direction (-1 OFF switch, 1 ON switch): -1; higher = weaker reporter binding
Summary of the method: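 Three titration conditions were used: no input, 200 uM small-molecule ligand, and an oligonucleotide input. In each, SNAP-549-labelled MS2 coat protein was raised from 0.7 or 1.5 nM, doubling, to 3 µM over designed RNA switches transcribed on Illumina chips by stalled E. coli RNA polymerase. Curve fits of normalised cluster fluorescence gave values whose per-design median over clusters is the apparent KD.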

[1] = input ligand: microRNA oligo, concentration not stated
[2] = Eterna round: R95, input ligand: FMN 200 uM
[3] = Eterna round: R95, input ligand: microRNA oligo, concentration not stated
[4] = Eterna round: R95, input ligand: none

Sequence	apparent KD of MS2 coat protein (input ligand: FMN 200 uM)	apparent KD of MS2 coat protein [1]	apparent KD of MS2 coat protein (input ligand: none)	apparent KD of MS2 coat protein [2]	apparent KD of MS2 coat protein [3]	apparent KD of MS2 coat protein [4]
UUAAAUCAUGUAGGAUAUGCGUGGAGAAACUAUGCAGAAGGACAUGAGGAUCACCCAUGUGCUUCCGUCUGAGAACAGACGGUA [Mat - Exclusion NG 1 - Mod of JL - D14] (Eterna round: R96, puzzle: Exclusion NG 1)	285 nM	43.2 nM	57.9 nM			
ACCAUGUAAGGAUAUCUCGUACAAAGACGCAACUCGUCCAGAGAGAAGGUACAUGAGGAUCACCCAUGUAGACA [Eternabot (Original) Solution 39] (Eterna round: R97, puzzle: Exclusion 4)	152 nM		33.5 nM			
ACAAGCUCUUUGCAACUUAGUUUUGUUGCUUCGUAGGUAACAUGAGGAUCACCCAUGUAAGAGUGAUGUCGUCUUAU [JR_SV3TOV2_Sub085] (puzzle: Sensor v3, turn-off variant 2)				65.8 nM	52.7 nM	76.9 nM
UCUGGUCGAGGAUAUACAUUCGUGCUUCGGCACGUAAGAUCACAUGAGGAUCACCCAUGUAGAAGGCGACCAGA [E2/5-A3] (Eterna round: R97, puzzle: Exclusion 2)	1050 nM		98.8 nM			
CACCAUCGUGUAAGGAUAUCGAGGCUUAGCGGGUGUGAGAAGGUACAUGAGGAUCACCCAUGUUACGAUUUGCG [Eternabot (L1) Solution 77] (Eterna round: R97, puzzle: Brourd's mod of Exclusion 4)	28.8 nM		25.6 nM			
AGUACUAACACGAAAGUGUUGGUACAAUAAGCUUGUGAAACAUGAGGAUCACCCAUGUCCUCAUAAGCUCGUCUUAU [salish99_TOv2_r3_036] (puzzle: Sensor v3, turn-off variant 2)				17.9 nM	599 nM	16.7 nM
ACAUGAGGAUCACCCAUGUCCGGCUGGUCUGUUCCGGUUGUCGAGGAUAUAGUUCGGUGUUCGCGCUAGAAGGCGGGAGCUGGA [Aenatbe mod 53] (Eterna round: R96, puzzle: Exclusion NG 3)	177 nM	130 nM	157 nM			
AGUUGUUGUUUCCGUUCUUACAUGAGGAUCACCCAUGUUUCUUGUCGUGCUCGCGUUGCUCGUCAGACUACCUGUUG [salish99_TOv1_r3_064] (puzzle: Sensor v3, turn-off variant 1)				87.1 nM	106 nM	138 nM
AACGAUACGCUCAUAAGAACAUGAGGAUCACCCAUGUGUGGUGAGGAUAUCCACCCAGAGGGAAAGGAGAAGGUACCAGUGGAC [Orsoenbere] (Eterna round: R96, puzzle: Exclusion NG 3)	222 nM	143 nM	303 nM			
GUCGAGUGAGGAUAUGGUGAGUAGUGCCUGAGCGCUGCUCACCAGAAGGCACAUGAGGAUCACCCAUGUAUAGC [JL-ex4-2.05 denovo] (puzzle: Exclusion 4)					15.5 nM	
CUGGUCCGAGGAUAUAUUAAGUGAAACAUGAGGAUCACCCAUGUUAUUUAAUGGAAAUAAAUAGAAGGCGGACUAG [Mat - Exclusion 5 - JL mod - D55] (puzzle: Exclusion 5)				34.4 nM	33.7 nM	59.9 nM
UAUUAGCAAGCGAGAUCCCACAUGAGGAUCACCCAUGUGCUCGUCUUAUAAAAGACUGUGACGAGAGUCACGGUCAC [Mat - Sensor, turn-off var - Eli Mod - D23] (Eterna round: R97, puzzle: Sensor, turn-off variant 1)	13.7 nM		12 nM			
CUUAGACAUGAGGAUCACCCAUGUGAGGAUAUGAUGCGAUCGUGCUGACAUGAUCGCAUCAGAAGGCACAUAUG [JL-ex1-01 Hyphema Mod2] (Eterna round: R96, puzzle: Exclusion 1)	242 nM	101 nM	115 nM			
UUUAAUUUUUUUUUUUUACAAGCUUUUUGCUCGUCUUAUACAUGAGGAUCACCCAUGUGGGUAGAAAGUAAAUUAUC [JMF 46] (puzzle: Sensor v3, turn-off variant 2)				13.7 nM	43.6 nM	15.4 nM
GUCACAUGGGUAUAGGAUCACAUGAGGAUCACCCAUGUGACUAACAAGCUUUUUGCUCGUCUUAUGUCUAUGUGAAG [Stov1/18-A1] (Eterna round: R97, puzzle: Sensor, turn-off variant 1)	42.9 nM		26.9 nM			
CCAUAUUCGAAGGAUAUGCAAUUGGAUAGAUUCGCAGAAGGUCGAACAUGAGGAUCACCCAUGUCCCUGGUGAA [Eternabot (L2) Solution 89] (Eterna round: R97, puzzle: Exclusion 6)	903 nM		133 nM			
CUCAUGUGAGGAUAUAGUACUUCUUCUAUUAUUAUUGAGUACUAGAAGGCACAUGAGGAUCACCCAUGUAGUAC [Ex4 - 3 - 44] (puzzle: Exclusion 4)					23.8 nM	

Sequence	apparent KD of MS2 coat protein (input ligand: FMN 200 uM)	apparent KD of MS2 coat protein [1]	apparent KD of MS2 coat protein (input ligand: none)	apparent KD of MS2 coat protein [2]	apparent KD of MS2 coat protein [3]	apparent KD of MS2 coat protein [4]
GCUCAACAUGAGGAUCACCCAUGUCAGGAUAUGCGAAUUUCAUCAAAAGAUGAAAUUUGCAGAAGGGACUAAGC [Omei Ex1 A32] (Eterna round: R97, puzzle: Exclusion 1)	114 nM		52.6 nM			
CCUCUACAUGAGGAUCACCCAUGUGAGGAUAUGUUGACGAGCCAGAAAUGGCUGGUCAACAGAAGGCAUAUGUA [Exclusion 1 (Mod 2.1 solution 16 by Eternabot)] (Eterna round: R97, puzzle: Exclusion 1)	43.7 nM		23.7 nM			
AAUACACAUGAGGAUCACCCAUGUCAGGAUAUGCGGAAUAAGACUUUGGUCGAUAAAUGUAGAAGGGACGUUUA [Dr. RN-Ant/Googlypuddle] (puzzle: Exclusion 1)					27.7 nM	
GAUUAUGCGAGCUUUAGGGACAUGAGGAUCACCCAUGUUCGUCUUGUUGAUCUAGGUACACUGACAUACCUAAAUCU [JMF 65] (puzzle: Sensor v3, turn-off variant 1)				22 nM	26.9 nM	18.3 nM
UUUUACAUAGGAUAUAGUUUCUUUUACAUGAGGAUCACCCAUGUUUCUCUUCUCUCUCUUCUAGAAGGAUGUUUCU [JR_E5_Sub013] (puzzle: Exclusion 5)					33.5 nM	
GGGUAGUGAGGAUAUCGUUGUUAGGAGGAGUAGGUAGGAGGCGAGAAGGCACAUGAGGAUCACCCAUGUAUGAA [JR_Exclu4_Sub066] (puzzle: Exclusion 4)					23.5 nM	
CCUUAUUCACAGGAUAUGCUCAUCUAAUGAUGAGCAGAAGGGUGGACAUGAGGAUCACCCAUGUUUAUCAAUGG [Omei Ex6 D5] (Eterna round: R97, puzzle: Exclusion 6)	545 nM		749 nM			
AACAGGACAGGAUAUACAUGAGGAUCACCCAUGUAGGAAACAAGCAGAGUACCAAAAAGUAGAAGGGUCAUGGA [Ruby 30] (Eterna round: R96, puzzle: Exclusion 3)		53.6 nM				
AGUUCUAACACGAAAGUGUUAGUACAAUAAGCUUGUGAAACAUGAGGAUCACCCAUGUCCUCAUAAGCUCGUCUUAU [salish99_TOv2_r3_013] (puzzle: Sensor v3, turn-off variant 2)				15.4 nM	667 nM	14.7 nM
UUUUGGCAUGUAGGAUAUGGGUCCGAUUAGGAUUUAGAAGGACAUGAGGAUCACCCAUGUGCCCUUACUUGGUCUUUUUUUUUU [EXclNG1-LROPPY18] (Eterna round: R96, puzzle: Exclusion NG 1)	52.3 nM	19.2 nM	41.2 nM			
AAUAAGUGAGGAUAUGCAAUAAUAAAUAAAAUAAUAAAUAAGCAGAAGGCACAUGAGGAUCACCCAUGUAAUAA [JMF's solution 1] (puzzle: Exclusion 4)				29.2 nM	20.8 nM	21.6 nM
UUUCCCUGUGUGAGGAUAUACUUGUUUGGGUUUUUGUAGAAGGCACAUGAGGAUCACCCAUGUACUCUGUCCUG [JR_BME4_Sub022] (puzzle: Brourd's mod of Exclusion 4)					22.1 nM	
GGUGGACAUGAGGAUCACCCAUGUGAGGAUAUCGGCUAUCUACUCGCUGACGGCUGCUCGAGAAGGCACAUUGU [Exclusion 1 V91] (puzzle: Exclusion 1)					54.6 nM	
UUACUCCUCGCUUGGUCACACAUGAGGAUCACCCAUGUGGGAUGCCAUGGCGUCUCAUCAAGCUUCUUUUGCUCGUG [Eternabot (Original) Solution 26] (Eterna round: R97, puzzle: Sensor, turn-off variant 1)	20.9 nM		23.8 nM			
CUAGUAUAUCAGGAUAUGAUUUUAUAUAGUGGAUCAGAAGGGAUAACAUGAGGAUCACCCAUGUUAAGGAGUGA [JR_Ex6_Sub041] (Eterna round: R97, puzzle: Exclusion 6)	129 nM		49.9 nM			
ACAAGCUUUUUGUUCGUCUUAUAAUAAUAAAUAAAUAUAACAUGAGGAUCACCCAUGUUAAGAAGACAACCUCAUGU [Sesor Array 25 - Jieux - Sensor v3, turn-off variant 2] (puzzle: Sensor v3, turn-off variant 2)				157 nM	606 nM	305 nM
CCGCAGCAAGGAUAUACUUGCGGUGGUGAACGAGGGCUUAUACUUGAGGAUCACCCAAGUAGAAGGUGCAAAAC [Mamaed] (Eterna round: R97, puzzle: Exclusion 2)	33.9 nM		22.4 nM			
